Assays:
Assay type in all cases: biochemical
[1] = system: Ang 1–8; assay: In vitro kinetic assay, Ang 1–8 cleavage to Ang 1–7, HPLC quantification; settings: ratio of k cat of the same enzyme for the two substrates
Procedure: (§1) Enzyme reactions were started by adding a defined amount of enzyme to substrate dilutions in MES-buffer (50 mM MES, 300 mM NaCl, 10 μM ZnCl2, 0.01% Brij-35, pH 6.5) which were previously equilibrated at 37°C. Aliquots of the reaction mixes were taken every 10 minutes and stopped by addition of 0.5 M EDTA to a final concentration of 100 mM before HPLC-based quantification of peptides.
(§2) The concentration of peptides in enzymatic reactions was quantified by detection of peaks eluted from the HPLC column using an in-line diode array detector. Chromatography was performed by running a gradient on a reversed-phase matrix (Source 5RPC, 4.6×150 mm, 5 μm) with 0.08% H3PO4 in water as mobile phase A and 40% acetonitrile in water and 0.08% H3PO4 as mobile phase B. The optical density at 280 nm was recorded inline for all eluting peaks, and peptide concentrations were calculated via calibration curves for each individual peptide.
The turnover rates for natural ACE2 substrates were determined by in vitro incubation with excess amounts of substrate followed by reversed-phase HPLC analysis. […] The resulting time courses are shown in the graphs. […] Each time point was analyzed in true triplicates and standard deviations are given in the graphs together with linear regressions of the measured values.

[2] = system: Ang 1–10; assay: In vitro kinetic assay, Ang 1–10 cleavage to Ang 1–9, HPLC quantification
Procedure: as §1, §2
The turnover rates for natural ACE2 substrates were determined by in vitro incubation with excess amounts of substrate followed by reversed-phase HPLC analysis. […] Each time point was analyzed in true triplicates and standard deviations are given in the graphs together with linear regressions of the measured values.

[3] = system: human RAS in blood plasma; assay: Ex vivo incubation of renin-spiked human plasma, RAS-Fingerprinting by LC-MS/MS; settings: human plasma + 100 pg/mL recombinant human renin, 10 μM Lisinopril present, without or with 5 μg/mL enzyme, 10 min 37°C (Fig 3b); 0 = below quantification limit (2 pg/mL plasma)
Procedure: Anticoagulated blood was collected from healthy volunteers, and plasma was separated by 10 minutes centrifugation at 3000 RCF. […] After 10 minutes of incubation at 37°C, in the presence or absence of Lisinopril (Sigma), samples were chilled on ice and immediately subjected to LC-MS/MS analysis.
Plasma samples were spiked with 100 pg/mL stable-isotope-labeled internal standards and subjected to solid-phase extraction using Sep-Pak cartridges (Waters) according to manufacturers protocol. Following elution and solvent evaporation, samples were reconstituted in 50 μL 50% acetonitrile/0.1% formic acid and subjected to LC-MS/MS analysis using a reversed-phase analytical column (Luna C18, Phenomenex) using a gradient ranging from 10% acetonitrile/0.1% formic acid to 70% acetonitrile/0.1% formic acid in 9 minutes. The eluate was analyzed in line with a QTRAP-4000 mass spectrometer (AB Sciex) operated in the MRM mode using dwell times of 25 msec at a cone voltage of 4000 volts and a source temperature of 300°C. For each peptide and corresponding internal standards, two different mass transitions were measured. Angiotensin peptide concentrations were calculated by relating endogenous peptide signals to internal standard signals provided that integrated signals achieved a signal-to-noise ratio above 10.
RAS-Fingerprints were measured by LC-MS/MS as indicated in Section 2. Samples were incubated in the absence (a) or presence (b) of 10 μM of the ACE inhibitor Lisinopril. In this figure, the diameter of the spheres reflects the concentration of the respective peptide metabolite, which is also given in pg/mL next to each individual sphere. 0 pg/mL indicates concentrations below quantification limits, which are defined by a signal-to-noise ratio below 10. Furthermore, the amino acid sequence of each angiotensin metabolite is schematically given in brackets beside the corresponding sphere. The sequence annotation is based on the decapeptide Angiotensin I (1–10) which is N- or C-terminally cleaved by the indicated proteases. […]

B1: rmACE2: extracellular domain of murine ACE2 recombinantly expressed in CHO cells (protein)
chain: QSLTEENAKTFLNNFNQEAEDLSYQSSLASWNYNTNITEENAQKMSEAAAKWSAFYEEQSKTAQSFSLQEIQTPIIKRQLQALQQSGSSALSADKNKQLNTILNTMSTIYSTGKVCNPKNPQECLLLEPGLDEIMATSTDYNSRLWAWEGWRAEVGKQLRPLYEEYVVLKNEMARANNYNDYGDYWRGDYEAEGADGYNYNRNQLIEDVERTFAEIKPLYEHLHAYVRRKLMDTYPSYISPTGCLPAHLLGDMWGRFWTNLYPLTVPFAQKPNIDVTDAMMNQGWDAERIFQEAEKFFVSVGLPHMTQGFWANSMLTEPADGRKVVCHPTAWDLGHGDFRIKMCTKVTMDNFLTAHHEMGHIQYDMAYARQPFLLRNGANEGFHEAVGEIMSLSAATPKHLKSIGLLPSDFQEDSETEINFLLKQALTIVGTLPFTYMLEKWRWMVFRGEIPKEQWMKKWWEMKREIVGVVEPLPHDETYCDPASLFHVSNDYSFIRYYTRTIYQFQFQEALCQAAKYNGSLHKCDISNSTEAGQKLLKMLSLGNSEPWTKALENVVGARNMDVKPLLNYFQPLFDWLKEQNRNSFVGWNTEWSPYADQSIKVRISLKSALGANAYEWTNNEMFLFRSSVAYAMRKYFSIIKNQTVPFLEEDVRVSDLKPRVSFYFFVTSPQNVSDVIPRSEVEDAIRMSRGRINDVFGLNDNSLEFLGIHPTLEPPYQPPVT
[1]
  turnover number for Ang 1–8 compared to Ang 1–10: 492 fold
[2]
  Ang 1–10-related turnover rate of rmACE2 as share of the rate for rhACE2: 7%
[2]; […] enzyme, 65 μM Ang 1–10, MES buffer pH 6.5, 37°C, HPLC, mean of substrate degradation and product formation rates related to enzyme concentration, triplicates
  k cat, Ang 1–10 ≥ Ang 1–9: 0.0013 s⁻¹
[3]
  Ang (1–7) concentration in plasma: < 2 pg/mL
